In publication PMC3324284:
Where “and” joins values, the source holds several entries; their conditions need not be identical. Equal entries are not always repeated. Where two headings read alike, the source gives them in different places.

Legend:
[1] = target: Mga4-His6 (Group A Streptococcus (Streptococcus pyogenes), M4 serotype strain GA40634); experiment: AUC
[2] = target: Mga4-His6 (Group A Streptococcus (Streptococcus pyogenes), M4 serotype strain GA40634); experiment: SEC
[3] = target: Mga4-His6 (Group A Streptococcus (Streptococcus pyogenes), M4 serotype strain GA40634); experiment: AUC; remark: listed apart in the source

Mga4-His6 (natural protein)
Kd [1]: 6.13 µM | stoichiometry N [2]: 2 and 4 and 6 | Kd [3]: 9.41 µM
